From patent publication US8088412B2, “Intralymphatic chemotherapy drug carriers” (priority 2008, dated 2012)
“Also recorded” adds a separate entry of the source.

Assays:
[1] = Long-term toxicology: urine creatinine; type: in vivo, Sprague-Dawley rats; details: 3.3 mg/kg subcutaneous, single dose
Procedure: Each animal was administered a single bolus dose at the beginning of the 30-day study period. […] Urine samples were centrifuged at 17,000×g for 5 mins and stored in −80° C. freezer until creatinine analysis.
Urine creatinine was analyzed using the QuantiChrom™ Creatinine Assay Kit according to the manufacturer's instructions (BioAssay Systems, Hayward, Calif.). Creatinine concentration of the sample was calculated as (ODSAMPLE 5-ODSAMPLE 1) (ODSTD 5-ODSTD 1)×[STD] (mg/dL). ODSAMPLE5 ODSAMPLE1, ODSTD5, and ODSTD1 are OD510nm values of sample and standard at 5 min and 1 min, respectively.

[2] = Long-term toxicology: pathological examination (H&E) at 30 days; type: in vivo, Sprague-Dawley rats; details: for lymphoid tissue histology (H&E) / underlying tissue at injection site: 30 days post injection; for brain tissue histology (H&E) / kidney tissue histology (H&E) / liver tissue histology (H&E): 30 days post single injection
Procedure: Each animal was administered a single bolus dose at the beginning of the 30-day study period. […] In order to reduce the stress to animals, subjects were housed in metabolic cages for 12 hrs to collect approximately 5 ml of urine and then returned to cages with bedding until the next collection period. Urine samples were centrifuged at 17,000×g for 5 mins and stored in −80° C. freezer until creatinine analysis.
The animals were euthanized at the end of the study (30 days) and the liver, bilateral kidneys, spleen, lungs, heart, right (ipsilateral) and left (contralateral) axillary nodes, and brain were excised intact and stored in 80% alcoholic formalin solution overnight for fixation before slide mounting. Mounting using haematoxylin & eosin (H&E) staining were conducted by Veterinary Lab Resources (Kansas City, Kans.). The pathological examination was performed by a blinded board-certified veterinarian pathologist (University of Kansas Medical Center, Kansas City, Kans.).

[3] = test system: MDA-MB-468LN human breast cancer cells; assay: Tumor response, breast lymphatic tumor xenograft; type: in vivo, Nude nu/nu mice
Procedure: Nude nu/nu mice were implanted with 1×10^6 cells (MDA-MB-468LN human breast cancer cells) into the mammary fatpad, after approximately 4 weeks a 100-200 mm^3 tumor had developed in the axillary lymph node package. Animals were randomly divided into four treatment groups of five animals each: intravenous saline, s.q. HA, intravenous cisplatin, or s.q. HA-cisplatin. At this point, doses were administered to the animals. In the HA-cisplatin and the HA groups, HA-cisplatin (3.3 mg/kg based on Pt-content) or HA (3.3 mg/kg) was dissolved in 100 mcL saline was injected subcutaneously peritumorally. […] In all study groups, a second dose was administered after 1 week. Tumor volumes were measured weekly using calipers and the formula: Volume=0.52×(width^2*length). Animals were euthanized when the tumor volume exceeded […] or the body score index fell below 2.

JMAR = assay: MTS cell viability assay, 72 hours; type: cell-based, human; details: 10 nM to 100 micromolar
Procedure: (§1) To evaluate the anticancer, specifically antiproliferative, effects of HA-cisplatin compared to standard CDDP in vitro in two human head and neck squamous cell carcinoma cell lines (JMAR and MDA-1986) a standard MTS assay was performed as per the manufacturer's specified protocol.
(§2) Once 75% confluent, cells were trypsinized (0.25% trypsin), counted and plated in 96-well microtiter plates (Costar, Cambridge, Mass., USA) (1×10^3 cells/well) in 100 μL of growth media. After an overnight attachment period, cells were exposed to varying concentration of […] for 3 days. All studies were performed in triplicate and repeated at least three times independently. After the 3-d treatment period, the number of viable cells was determined using a colorimetric Cell Proliferation assay (CellTiter96 Aqueous Nonradioactive Cell Proliferation assay; Promega, Madison Wis., USA), which measures the bioreduction of the MTS (3-[4,5-dimethylthiazol-2yl]-5-[3-carboxymethoxyphenyl]-2-[4-sulfophenyl]-2H tetrazolium) by dehydrogenase enzymes of metabolically active cells into soluble formazon product, in the presence of the electron coupling reagent PMS (phenazine methosulfate). To perform the assay, 20 μL of combined MTS/PMS solution containing 2 mg/mL MTS and 150 μM PMS in buffer (0.2 g/L KCl, 8.0 g/L NaCl, 0.2 g/L KH2PO4, 1.15 g/L, […] CaCl2-2H2O, […], MgCl2.6H2O, pH 7.35) was added to each well and then after 3 hr of incubation at 37° C. in a humidified 5% CO2 atmosphere, absorbance was measured at 490 nm in microplate reader. Triplicate wells with predetermined cell numbers were subjected to the above assay in parallel with the test samples to normalize the absorbance readings; this also provided internal confirmation that the assay was linear over the range of absorbance and cell numbers measured. Data was plotted as a function of % viability from controls (cell viability) vs. drug concentration (x-axis).

MDA-1986 = assay: MTS cell viability assay, 72 hours; type: cell-based, human; details: 10 nM to 100 micromolar
Procedure: as §1, §2

[4] = test system: three aggressive human breast cancer cell lines; assay: Cell proliferation, Alamar blue assay, 72 hrs; type: cell-based; details: breast cancer cells in culture
Procedure: The 10% w/w conjugate was applied to cells, and 72 hrs later, cell proliferation was determined using the Alamar blue assay (Invitrogen Corp.). […] Similarly, cisplatin conjugates were applied to breast cancer cells in culture. […] This may be due release of anticancer drugs from nanocarriers into the culture media, followed by uptake as with free drug.

Substance: [PtCl(H2O)(NH3)2]OOCO-HA [HA-cisplatin]
- urine creatinine levels [1]: remained near pre-dosing levels
- lymphoid tissue histology (H&E) ([2]; 1 mg/kg subcutaneous): normal findings
- underlying tissue at injection site ([2]; 1 mg/kg subcutaneous): normal findings
- brain tissue histology (H&E) ([2]; 1 mg/kg subcutaneous): normal findings
- kidney tissue histology (H&E) ([2]; 1.0 mg/kg subcutaneous): normal appearance except for minimal renal tubular cell swelling and degeneration
- liver tissue histology (H&E) ([2]; 1.0 mg/kg subcutaneous): Very mild changes; also recorded: normal appearance
- lymphoid tissue histology (H&E) ([2]; 3.3 mg/kg subcutaneous): Very mild changes; also recorded: normal findings
- underlying tissue at injection site ([2]; 3.3 mg/kg subcutaneous): normal findings
- brain tissue histology (H&E) ([2]; 3.3 mg/kg subcutaneous): normal findings
- kidney tissue histology (H&E) ([2]; 3.3 mg/kg subcutaneous): fairly normal appearance except for minor foci of tubular cell necrosis at the corticomedullary junction
- liver tissue histology (H&E) ([2]; 3.3 mg/kg subcutaneous): Mild degeneration with some sinusoidal necroses; also recorded: fairly normal appearance except for very mild degeneration
- animals diagnosed with mild renal necrosis ([2]; high dose (3.3 mg/kg) subcutaneous, 30 days, of 5): 20%
- animals with renal necrosis ([2]; low dose (1.0 mg/kg) subcutaneous, 30 days): none
- tumor growth delay compared to negative control group ([3]; 3.3 mg/kg (Pt) subcutaneously peritumorally, second dose after 1 week): 5 weeks
- toxicity in treated tumor-bearing animals ([3]; 3.3 mg/kg subcutaneously peritumorally, two doses): no toxicity was observed
- IC50 level compared with CDDP (JMAR): no significant difference
- IC50 level compared with CDDP (JMAR; listed as HA-Cisplatin): very similar
- IC50 level compared with CDDP (MDA-1986): no significant difference
- IC50 level compared with CDDP (MDA-1986; listed as HA-Cisplatin): very similar
- anticancer activity compared with free cisplatin [4]: not significantly different from free cisplatin
